The text below walks through data of patent US20230416394A1 (ELPISCIENCE SUZHOU BIOPHARMA, published 2023).

In experiment [1] the target is T1, human TGFβ1 (human, UniProt P01137 279-390).
T1 construct: also called TGFβ peptide (TGFβ1); biotinylated TGFβ1
The experiment can be described thus: ELISA, coated human TGFβ1. Here is the method: To determine the binding ability and specificity of the anti-CD39/TGFβ Trap molecules, ELISA assays were conducted using human TGFβ1, human TGFβ2, human TGFβ3 as well as mouse TGFβ1. The tested antigens were coated on NUNC 96-well immunoplate at the concentration of 1 μg/ml. Binding with increasing concentrations of anti-CD39/TGFβ Trap molecules was measured with anti-human Fc antibody horseradish peroxidase conjugate diluted in PBT buffer, then developed with TMB substrate. Soluble TGFβ trap was used as control. As shown in FIGS. 25A-25C, the anti-CD39/TGFβ Trap molecules ES014-1 and ES014-2 bind to all three TGFβ homologues: human TGFβ1, TGFβ2 and TGFβ3. The binding assay results of the other tested anti-CD39/TGFβ Trap molecules (including ES014-3, ES014-4, ES014-5, ES014-6, ES014-7) were similar and not shown herein. Moreover, the anti-CD39/TGFβ Trap molecule ES014-1 binds to mouse TGFβ1 with similar affinity as for human TGFβ1 (FIG. 25D).

The target of experiment [2] is T1, human TGFβ1. The experiment in a line: ELISA, blocking of TGFβRII-His binding to coated TGFβ1. As for the experimental part: For blocking assay, TGFβ peptide (TGFβ1) was coated on microplates. A serial dilution of purified antibodies was incubated with recombinant TGFβRII-His protein (SinoBiological) for 1 h in TGFβ1-coated plates. After wash, the remaining TGFβRII-His was detected by anti-His-HRP conjugated secondary antibody. The values of absorbance at 450 nm were read on a microtiter plate reader (Molecular Devices Corp) for the quantification of TGFβRII-His binding to TGFβ1. All the tested anti-CD39/TGFβ Trap molecules (i.e. ES014-1, ES014-2, ES014-3, ES014-6) could effectively block human TGFβ1 binding to the TGFβ receptor TGFβRII (FIG. 26, Soluble TGFβ trap (i.e. TGFβRII) was used as control). IC 50 values of the anti-CD39/TGFβ Trap molecules were analyzed using GraphPad Prism.
(In general: In an ELISA, binding on a coated surface is turned into a signal by an enzyme label.)

Experiment [3] deals with T2, 6×His tagged human CD39 (human).
T2 chain: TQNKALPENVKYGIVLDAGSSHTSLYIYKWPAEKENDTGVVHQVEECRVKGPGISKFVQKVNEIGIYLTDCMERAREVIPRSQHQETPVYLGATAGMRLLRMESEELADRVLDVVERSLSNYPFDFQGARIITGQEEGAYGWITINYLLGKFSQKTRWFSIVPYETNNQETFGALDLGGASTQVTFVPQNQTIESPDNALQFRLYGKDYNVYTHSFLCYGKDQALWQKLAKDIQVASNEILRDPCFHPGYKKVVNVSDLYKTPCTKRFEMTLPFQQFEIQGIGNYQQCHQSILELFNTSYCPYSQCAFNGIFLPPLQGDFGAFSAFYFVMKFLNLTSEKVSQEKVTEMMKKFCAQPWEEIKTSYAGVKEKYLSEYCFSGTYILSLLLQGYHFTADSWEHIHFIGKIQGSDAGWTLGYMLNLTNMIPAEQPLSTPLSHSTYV
The experiment in a line: Biacore, antibody captured, 6×His human CD39 as analyte, 1:1 model. Here is the method:
In particular, humanized antibodies hu23.H5L5, hu23.201, hu14.H1L1 and reference antibodies I394 and T895 were characterized for binding affinity against human CD39 using Biacore (GE). Briefly the antibodies to be tested were captured to […] (GE) using Human Antibody Capture Kit (GE). The antigen of 6×His tagged human CD39 was serially diluted for multiple doses and injected at 30 μl/min for 180 s. Buffer flow was maintained for dissociation of 400 s. 3 M MgCl₂ was used for chip regeneration. The association and dissociation curves were fit with 1:1 binding model, and the Ka/Kd/KD values for each antibody were calculated.

The target in experiment [4] is T3, human CD39 (human, UniProt P49961 1-510).
T3 construct: full length human CD39 (NP_001767.3) on transfected CHOK1 cells, or native on SK-MEL-5, SK-MEL-28 and MOLP-8 cells; also called hCD39; ENTPD1
T3 sequence: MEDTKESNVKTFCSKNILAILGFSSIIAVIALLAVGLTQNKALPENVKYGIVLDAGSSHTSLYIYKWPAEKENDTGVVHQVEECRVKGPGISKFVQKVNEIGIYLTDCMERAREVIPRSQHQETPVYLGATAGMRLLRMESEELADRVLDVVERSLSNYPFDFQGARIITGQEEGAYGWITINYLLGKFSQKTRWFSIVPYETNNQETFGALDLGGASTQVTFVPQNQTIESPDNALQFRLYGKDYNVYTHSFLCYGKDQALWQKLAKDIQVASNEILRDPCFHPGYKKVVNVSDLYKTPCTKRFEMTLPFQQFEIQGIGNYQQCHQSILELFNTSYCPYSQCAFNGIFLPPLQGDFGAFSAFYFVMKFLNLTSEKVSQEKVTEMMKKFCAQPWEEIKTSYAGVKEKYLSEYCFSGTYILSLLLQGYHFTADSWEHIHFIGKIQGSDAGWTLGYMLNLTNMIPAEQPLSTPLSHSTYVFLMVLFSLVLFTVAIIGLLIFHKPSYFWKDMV
The experiment in a line: FACS, SK-MEL-28 cells. On the technique in general: A flow cytometer gives signals particle by particle.

Experiment [5] addresses T4, cynomolgus CD39 (cynomolgus monkey, UniProt A0A7N9DGH8 1-510).
T4 construct: whole, on cells; also called cyno CD39; CHOK1-cynoCD39
T4 sequence: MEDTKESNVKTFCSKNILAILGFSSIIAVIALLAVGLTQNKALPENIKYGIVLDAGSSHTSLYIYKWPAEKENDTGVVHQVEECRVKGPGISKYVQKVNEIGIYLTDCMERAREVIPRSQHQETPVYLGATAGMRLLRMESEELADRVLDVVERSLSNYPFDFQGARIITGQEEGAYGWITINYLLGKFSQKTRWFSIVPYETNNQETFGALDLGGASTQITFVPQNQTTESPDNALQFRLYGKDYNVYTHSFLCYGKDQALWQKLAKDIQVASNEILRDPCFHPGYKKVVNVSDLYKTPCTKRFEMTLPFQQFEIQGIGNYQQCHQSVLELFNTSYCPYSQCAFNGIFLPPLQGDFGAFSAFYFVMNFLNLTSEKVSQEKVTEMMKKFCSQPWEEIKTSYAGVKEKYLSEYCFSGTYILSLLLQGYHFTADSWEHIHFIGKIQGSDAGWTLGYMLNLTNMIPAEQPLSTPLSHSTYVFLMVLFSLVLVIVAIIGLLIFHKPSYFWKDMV
The experiment in a line: FACS, CHO-K1/cynoCD39 cells.

Experiment [6] addresses T3, human CD39. The experiment can be described thus: FACS, MOLP-8 cells.
The target in experiment [7] is T3, human CD39. The experiment in a line: cell-based or functional assay.
In experiment [8] the target is T3, human CD39. The experiment can be described thus: FACS, SK-MEL-5 cells.
The target of experiment [9] is T3, human CD39. The experiment can be described thus: FACS, MOLP-8 cells. This is another data set of the same source.
In experiment [10] the target is T3, human CD39. The experiment in a line: FACS, MOLP-8 cells, second set.

T1 sequence (P01137 279-390 limits assumed): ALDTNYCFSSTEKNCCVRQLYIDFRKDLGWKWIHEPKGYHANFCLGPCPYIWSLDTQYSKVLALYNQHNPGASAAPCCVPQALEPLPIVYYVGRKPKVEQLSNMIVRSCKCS

B1: Soluble TGFβ trap (i.e. TGFβRII) (receptor, UniProt P37173 24-159, looked up)
chain: IPPHVQKSVNNDMIVTDNNGAVKFPQLCKFCDVRFSTCDNQKSCMSNCSITSICEKPQEVCVAVWRKNDENITLETVCHDPKLPYHDFILEDAASPKCIMKEKKKPGETFFMCSCSSDECNDNIIFSEEYNTSNPD
notes: construct not described; also called TGFβ trap control
With B1, the midpoint of the response in experiment [1], the EC50, lay at 0.017 nM. In addition, the IC50 (as a rule, the concentration needed to halve the response being measured) in [2] was 0.58 nM.

B2: hu14.H1L1 (antibody, V domains shown)
VH: EVQLVESGGGLVKPGGSLRLSCAASGFTFSKYWMNWVRQAPGKGLEWVGEIRLKSNKYGTHYAESVKGRFTISRDDSKNTLYLQMNSLKTEDTAVYYCTTQLDLYWFFDVWGQGTTVTVSS
VL: EIVLTQSPATLSLSPGERATLSCRASQSISDYLHWYQQKPGQAPRLLIYYASQSISGIPARFSGSGSGTDFTLTISSLEPEDFAVYYCQNGHSLPLTFGGGTKLEIK
Consider B2, for which, in experiment [3], binding was put at a Kd of 5.03 nM; the koff (as a rule, the first-order rate constant of dissociation) is 0.00455 s⁻¹; the kon (as a rule, the second-order rate constant of association) is 903000 M⁻¹ s⁻¹.

B3: I394 (antibody, V domains shown)
VH: QVQLVQSGAEVKKPGASVKVSCKASGYTFKSYEMHWVRQAPGQGLEWMGRINPSVGSTWYAQKFQGRVTMTRDTSTSTVYMELSSLRSEDTAVYYCARGKREGGTEYLRKWGQGTLVTVSS
VL: EIVLTQSPGTLSLSPGERATLSCRASQSVASSYLAWYQQKPGQAPRLLIYGASNRHTGIPDRFSGSGSGTDFTLTISRLEPEDFAVYYCQQYHNAITFGGGTKVEIK
Regarding B3, the EC50 (as a rule, the concentration giving half of the maximal effect) in experiment [4] was 0.94 nM; in [5], 2.71 nM; in experiment [6], 0.11 nM; in [8], 0.49 nM. Moreover, the “ATPase activity inhibition (IC50), MOLP-8 cells” value in [7] was determined as 0.21 nM. Also, the “ATPase activity inhibition (IC50), SK-MEL-5 cells” value in experiment [7] worked out at 0.1 nM.

B4: hu23.H3L1 (antibody, V domains shown)
VH: QVQLVQSGAEVKKPGASVKLSCKASGYNLKDTFLHWVRQAPGQGLEWIGRIDPANGNIKYDPKFQGRATITADTSASTAYMELSSLRSEDTAVYYCANSPYYYGSGYRIFDVWGQGTTVTVSS
VL: EIVLTQSPATLSLSPGERATLSCSAFSSVNYMHWYQQKPGQAPRLLIYTTSNLASGIPARFSGSGSGTDFTLTISSLEPEDFAVYYCQQRSTYPFTFGQGTKLEIK
Take B4: the EC50 in [9] is about 15.4 nM.

B5: hu23.H1L1 (antibody, V domains shown)
VH: QVQLVQSGAEVKKPGASVKVSCKASGYNLKDTFLHWVRQAPGQRLEWMGRIDPANGNIKYDPKFQGRVTITRDTSASTAYMELSSLRSEDTAVYYCARSPYYYGSGYRIFDVWGQGTTVTVSS
VL: EIVLTQSPATLSLSPGERATLSCSAFSSVNYMHWYQQKPGQAPRLLIYTTSNLASGIPARFSGSGSGTDFTLTISSLEPEDFAVYYCQQRSTYPFTFGQGTKLEIK
As for B5, in experiment [10], the EC50 is about 78.2 nM.
